Assay [1] deals with IL-12 (UniProt P29460). Description: receptor binding assay (RBA).
The target in assay [2] is human IL-12 p70 (human) (UniProt P29460). Put plainly: koff; method not given.
Sequence of human IL-12 p70 (human) (P29460 23-328, chain 1 of 2): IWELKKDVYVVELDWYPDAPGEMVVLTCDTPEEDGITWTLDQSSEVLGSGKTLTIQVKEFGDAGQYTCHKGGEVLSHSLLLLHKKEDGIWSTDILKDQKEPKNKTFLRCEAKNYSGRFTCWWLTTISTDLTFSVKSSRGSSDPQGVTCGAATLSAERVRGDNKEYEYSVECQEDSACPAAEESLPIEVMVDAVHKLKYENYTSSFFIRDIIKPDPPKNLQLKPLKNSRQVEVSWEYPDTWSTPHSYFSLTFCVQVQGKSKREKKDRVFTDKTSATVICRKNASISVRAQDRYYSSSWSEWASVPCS
Sequence of human IL-12 p70 (human) (chain, as listed by the source, chain 2 of 2): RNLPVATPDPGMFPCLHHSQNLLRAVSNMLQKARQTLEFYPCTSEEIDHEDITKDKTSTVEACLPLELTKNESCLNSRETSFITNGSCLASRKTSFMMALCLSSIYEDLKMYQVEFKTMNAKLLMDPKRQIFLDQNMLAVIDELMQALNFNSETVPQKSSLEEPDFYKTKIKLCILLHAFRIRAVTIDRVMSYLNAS

Sequence of IL-12 (P29460 23-328, chain 1 of 2): as the sequence (P29460 23-328, chain 1 of 2) above
Sequence of IL-12 (P29459 23-219, chain 2 of 2, further chain): as the sequence (chain, as listed by the source, chain 2 of 2) above

For orientation: IC50 means the concentration needed to halve the response being measured. Read a high IC50 as lower potency. Regarding Y61 L50Y, in assay [1], the half-inhibitory concentration (IC50) turned out to be 0.02 nM. On the same count and under the same terms, with Y61 L94Y the figure was 0.06 nM. In assay [2], “Y61 with Asn-L31 mutated to aspartate (antibody)” gave a fold increase in koff (against Y61) of 2.5 fold. As to “Y61 with His-H95 mutated to glutamate (antibody)”, the fold increase in koff (against Y61) in assay [2] is 8 fold.

The values are drawn from patent US20120288494A1.
